Data on one molecule can be found in patent US20060270596A1 (CENTRE NATIONAL DE LA RECHERCHE SCIENTIFIQUE CNRS, published 2006).

Common to all, as to test: in vivo interaction test: GFP-THAP1 mutant and myc-Par4DD co-expressed in primary human endothelial cells, confocal immunofluorescence
Experiment [1] addresses T1, THAP1-C2 deletion mutant (amino acids 120-213) (human, UniProt Q9NVV9 120-213).
T1 construct: Gal4 fusion, in vitro translation product or GFP fusion according to assay
T1 sequence: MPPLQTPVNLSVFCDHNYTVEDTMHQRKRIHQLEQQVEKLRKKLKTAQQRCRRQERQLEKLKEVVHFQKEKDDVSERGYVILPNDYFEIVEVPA
The source says: (§1) To provide further evidence for a physiological interaction between THAP1 and Par4 in vivo interactions between THAP1 and PAR4 were investigated. For that purpose, confocal immunofluorescence microscopy was used to analyze the subcellular localization of epitope-tagged Par4DD in primary human endothelial cells transiently cotransfected with pEF-mycPar4DD eukaryotic expression vector and GFP or GFP-THAP1 expression vectors (pEGFP.C2 and pEGFP.C2-THAP1, respectively). To generate pEF-mycPar4DD, mycPar4DD (amino acids 250-342) was amplified by PCR using pGBKT7-Par4DD as template, with primers myc.BD7 (5′-[…]-3′) (SEQ ID NO: 195) and Par4.9 (5′-[…]-3′) (SEQ ID NO: 196), and cloned into the XbaI and NotI sites of the pEF-BOS expression vector (Mizushima and Nagata, Nucleic Acids Research, 18:5322, 1990). Primary human endothelial cells from umbilical vein (HUVEC, PromoCell, Heidelberg, Germany) were grown in complete ECGM medium (PromoCell, Heidelberg, Germany), plated on coverslips and transiently transfected in RPMI medium using GeneJammer transfection reagent according to manufacturer instructions (Stratagene, La Jolla, Calif., USA). Cells co-transfected with pEF-mycPar4DD and GFP-tagged expression constructs were allowed to grow for 24 h to 48 h on coverslips. Cells were washed twice with PBS, fixed for 15 min at room temperature in PBS containing 3.7% formaldehyde, and washed again with PBS prior to neutralization with 50 mM NH₄Cl in PBS for 5 min at room temperature. Following one more PBS wash, cells were permeabilized 5 min at room temperature in PBS containing 0.1% Triton-X100, and washed again with PBS. Permeabilized cells were then blocked with PBS-BSA (PBS with 1% bovine serum albumin) for 10′ and then incubated 2 hr at room temperature with mouse monoclonal antibody anti-myc epitope (mouse IgG1, 1/200, Clontech) diluted in PBS-BSA. Cells were then washed three times 5 min at room temperature in PBS-BSA, and incubated for 1 hr with Cy3 (red fluorescence)-conjugated goat anti-mouse (1/1000, Amersham Pharmacia Biotech) secondary antibodies, diluted in PBS-BSA. After extensive washing in PBS, samples were air dried and mounted in Mowiol. Images were collected on a Leica confocal laser scanning microscope.

Experiment [2] concerns the target T2, THAP1-C3 deletion mutant (amino acids 143-213) (human, UniProt Q9NVV9 143-213).
T2 construct: Gal4 fusion, in vitro translation product or GFP fusion according to assay
T2 sequence: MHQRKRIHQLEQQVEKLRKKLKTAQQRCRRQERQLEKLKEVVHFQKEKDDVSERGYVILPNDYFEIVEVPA
Excerpt: as §1

In experiment [3] the target is T3, THAP1-C1 deletion mutant (amino acids 90-213) (human, UniProt Q9NVV9 90-213).
T3 construct: Gal4 fusion, in vitro translation product or GFP fusion according to assay; also called THAP1-CL; THAP1ΔTHAP
T3 sequence: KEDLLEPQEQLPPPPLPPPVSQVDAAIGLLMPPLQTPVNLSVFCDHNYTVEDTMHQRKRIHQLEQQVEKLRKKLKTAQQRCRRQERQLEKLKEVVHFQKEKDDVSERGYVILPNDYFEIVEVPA
Excerpt: as §1

Experiment [4] concerns the target T4, THAP1-N2 deletion mutant (amino acids 1-166) (human, UniProt Q9NVV9 1-166).
T4 construct: Gal4 fusion, in vitro translation product or GFP fusion according to assay
T4 sequence: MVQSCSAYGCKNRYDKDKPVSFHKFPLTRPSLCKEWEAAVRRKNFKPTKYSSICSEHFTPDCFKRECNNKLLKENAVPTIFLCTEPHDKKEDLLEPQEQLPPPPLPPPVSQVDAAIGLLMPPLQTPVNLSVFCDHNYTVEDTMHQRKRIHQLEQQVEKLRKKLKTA
Excerpt: as §1

The target in experiment [5] is T5, THAP1-N3 deletion mutant (amino acids 1-192) (human, UniProt Q9NVV9 1-192).
T5 construct: Gal4 fusion, in vitro translation product or GFP fusion according to assay
T5 sequence: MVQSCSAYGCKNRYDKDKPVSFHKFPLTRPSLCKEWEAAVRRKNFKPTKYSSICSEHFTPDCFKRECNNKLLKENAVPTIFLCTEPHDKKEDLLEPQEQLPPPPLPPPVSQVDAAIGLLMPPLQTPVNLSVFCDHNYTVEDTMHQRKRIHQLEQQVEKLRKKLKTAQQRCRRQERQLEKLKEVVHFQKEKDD
Excerpt: as §1

B1: Par4 leucine zipper/death domain (Par4DD, amino acids 250-342) (other)
chain: GFPRYNRDANVSGTLVSSSTLEKKIEDLEKEVVTERQENLRLVRLMQDKEEMIGKLKEEIDLLNRDLDDIEDENEQLKQENKTLLKVVGQLTR
notes: Gal4 fusion in two-hybrid; also called myc-Par4DD
As for B1, the binding result in experiment [1] is given as “binds”; in experiment [2], “binds”; in experiment [3], “binds”; in experiment [4], “no binding”; in experiment [5], “binds”.
